Literature values, collected in publication PMC2812830.

Molecular target: LAT pY191 phosphopeptide pY191 peptide (Homo sapiens) (UniProt O43561)
Test: ITC

Kd: 286 nM
Substance: Grb2 (from UniProt P62993)
